Data published in publication doi:10.1101/772293.
Like-named read-outs stand apart in the source and are kept apart here.

Legend:
angiotensin AT1 receptor [1] = target: angiotensin AT1 receptor (UniProt P30556); assay: genetically encoded conformation-sensitive fluorescent biosensor
angiotensin AT1 receptor [2] = target: angiotensin AT1 receptor (UniProt P30556); assay: as above; remark: listed apart in the source

UniProt P30556, sequence (P30556 whole entry): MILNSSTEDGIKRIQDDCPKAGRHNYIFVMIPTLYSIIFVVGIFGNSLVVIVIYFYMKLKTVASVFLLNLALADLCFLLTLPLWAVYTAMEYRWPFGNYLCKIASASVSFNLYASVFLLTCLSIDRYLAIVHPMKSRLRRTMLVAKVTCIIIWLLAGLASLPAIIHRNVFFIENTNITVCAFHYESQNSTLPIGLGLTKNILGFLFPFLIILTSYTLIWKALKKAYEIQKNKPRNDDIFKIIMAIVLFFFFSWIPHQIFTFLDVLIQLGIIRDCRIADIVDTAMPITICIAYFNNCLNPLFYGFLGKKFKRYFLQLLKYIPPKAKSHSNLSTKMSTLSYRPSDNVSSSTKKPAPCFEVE

t1/2 of arrestin recruitment (0.693/kobs) with 32 uM AngII (angiotensin AT1 receptor [1]): 44 s | t1/2 of arrestin recruitment (0.693/kobs) with 32 uM AngII (angiotensin AT1 receptor [2]): 45 s | t1/2 of arrestin recruitment (0.693/kobs) with 32 uM SII (angiotensin AT1 receptor [2]): 84
Substance: β-arrestin2 sensor (β-arrestin2 inserted into the seventh stave of mNeonGreen) (from UniProt P32121 1-409)
